This note sets out measurements from PMC4600981.

This assay has as its target FvCamlp (calmodulin like EF hand protein of Flammulina velutipes), freed of the GST tag (Flammulina velutipes). Briefly: SEC; Superdex 200, 25 mM Tris-HCl pH 7.5, 150 mM NaCl, 4 °C, flow 0.4 ml/min; in absence (5.0 mM EGTA) and presence of Ca2+ (5.0 mM); monomer to dimer.

As for “FvCamlp (calmodulin like EF hand protein of Flammulina velutipes), freed of the GST tag (natural protein)”, the stoichiometry N turned out to be 2.
